# Key:
# [1] = Influence of sugar on drug release from collagen in vitro (Example 1); type: physicochemical; details: lysozyme 2 mg/mL, atelocollagen 3% [w/v], sucrose 0.05 M vs no sucrose; PBS external liquid, 37° C., HPLC
# Method: The influence of a sugar on drug release from a collagen was confirmed through use of lysozyme (final concentration: 2 mg/mL) (Sigma-Aldrich Corporation) as a drug.
# Lysozyme was dissolved in a physiological buffer (PBS, pH 7.4) containing sucrose (final concentration: 0.05 M) or a physiological buffer containing no sucrose. After that, the solution and an atelocollagen solution (final concentration: 3% [w/v]) (product name: KOKEN ATELOCOLLAGEN IMPLANT) were mixed and formulated.
# Conditions for the measurement were as follows: • Initial eluent: 30% acetonitrile solution containing 0.1% triethylamine (TEA) • Final eluent: concentration-gradient elution with 45% acetonitrile solution containing 0.1% TEA • rate: 1 mL/min • Elution time: 30 minutes • Detection wavelength: 220 nm
# [2] = Influence of formulation procedure on drug release rate in vivo (Example 3); details: 100 μL to dorsal subcutis of mice, 1 hour; lysozyme 5 mg/mL, sucrose 0.25 M, atelocollagen 3% [w/v]; different mixing orders
# Method: The following three kinds of ingredients were mixed in different orders and formulated as shown in the following items a) to d): lysozyme (MW: 14 kDa); sucrose; and atelocollagen (product name: KOKEN ATELOCOLLAGEN IMPLANT).
# Each of the formulations was prepared so that the final concentrations of lysozyme, sucrose, and atelocollagen were 5 mg/mL, 0.25 M, and 3% [w/v], respectively.
# 100 μL of each of the formulations according to the above-mentioned items a) to d) were administered to the dorsal subcutis of mice. One hour later, the formulation that underwent gelation at a body temperature was taken out, and the amount of the lysozyme remaining in the gel was measured by HPLC to calculate the release amount of the lysozyme.
substance,measurement,setting,value
lysozyme,amount of the lysozyme released into the external liquid,[1],large in the case of containing sucrose as compared to the case of containing no sucrose
same,release amount of the lysozyme in vivo,[2],varied depending on a change in mixing procedure

# Source: patent publication US9301917B2, “Sustained-release pharmaceutical composition” (Kyoto University, priority 2010, dated 2016)
